pKd: −log10 of the molar value.
System: MtlR (Pseudomonas fluorescens DSM 50106)
Experiment: EMSA
Settings: 1x shift buffer A: 10 mM Tris-HCl pH 7.0, 5% glycerol, 1 mM TCEP, 50 ug/ml salmon sperm DNA, 4% TEG, 2 mM D-mannitol (absent in buffer B), 30 min on ice, gel …

## PCR 210 (wild-type PmtlE operator)
With D-mannitol, kdiss 1.1e-4 s-1, t1/2 112 min
  pKd: 7.51
Without mannitol, kdiss 1.2e-4 s-1, t1/2 99 min
  pKd: 7.49
